From article doi:10.1101/235556

Molecular target: Polyhydroxyalkanoate synthase PhaC from Aquitalea sp. USM4 (JCM 19919) (Aquitalea sp. USM4 (JCM 19919))
Experiment: SEC

stoichiometry N: 2
Substance: Polyhydroxyalkanoate synthase PhaC from Aquitalea sp. USM4 (JCM 19919) (enzyme)
